Article PMC4156298, “Characterization of the PH1704 Protease from Pyrococcus horikoshii OT3 and the Critical Functions of Tyr120” (PLoS ONE, 2014)
Residue numbers refer to the chain shown, from its start. Names may count otherwise.

B1: recombinant PH1704 protease from Pyrococcus horikoshii OT3 (enzyme, UniProt O59413 1-166, looked up)
chain: MKVLFLTANEFEDVELIYPYHRLKEEGHEVYIASFERGTITGKHGYSVKVDLTFDKVNPEEFDALVLPGGRAPERVRLNEKAVSIARKMFSEGKPVASICHGPQILISAGVLRGRKGTSYPGIKDDMINAGVEWVDAEVVVDGNWVSSRVPADLYAWMREFVKLLK
notes: PH1704 protease, Pyrococcus horikoshii OT3, gene amplified from genomic DNA with primers at the start and at the stop codon, cloned NdeI/BamHI into pET-15b; The tag is known from detection with an anti-His tag antibody; also called WT; source: E. coli BL21 (DE3), purified (heat incubation at 80°C, Sephacryl S-200); copies: 12
B2: PH1704 protease (Pyrococcus horikoshii OT3; Y120S) (protein)
chain: B1 chain with Y120S
notes: full-length gene in pET-15b (NdeI/BamHI), His-tag (detected by anti-His western blot), E. coli BL21(DE3); heat step and Sephacryl S-200
B3: PH1704 protease (Pyrococcus horikoshii OT3; Y120W) (protein)
chain: B1 chain with Y120W
notes: as for B2
B4: PH1704 protease (Pyrococcus horikoshii OT3; Y120P) (protein)
chain: B1 chain with Y120P
notes: as for B2

Substrate: Cc1cc(=O)oc2cc(NC(=O)[C@@H](N)CCCNC(=N)N)ccc12
Test: fluorescence of released amc, Hill equation fit
Assay type: biochemical, Pyrococcus horikoshii
Details: 50 mM sodium phosphate pH 7.5, 358 K, 60 min, aminopeptidase, 85.0 °C
From the text: fluorescence of released amc, Hill equation fit on PH1704 protease

B1 and B2 are within 1.5-fold of each other in Km: 12 ± 0.65 µM for the first, 9.0 ± 0.43 µM for the second.

First: B3
Second: B4
The Km of the first is 1.8-fold higher: 20.6 ± 0.77 µM for the first, 11.3 ± 0.59 µM for the second.

Compared with B1, B2 is 4.4-fold lower in kcat: 0.0108 ± 0.000833 s⁻¹ for the first, 0.00245 ± 0.000167 s⁻¹ for the second.

Going from B3 to B4, the kcat rises from 0.02 ± 0.00117 s⁻¹ to 0.0728 ± 0.002 s⁻¹ (3.6-fold).

Going from B1 to B2, the kcat/Km falls from 867 ± 133 M⁻¹ s⁻¹ to 400 ± 66.7 M⁻¹ s⁻¹ (2.2-fold).

Going from B3 to B4, the kcat/Km rises from 1100 ± 83.3 M⁻¹ s⁻¹ to 6630 ± 417 M⁻¹ s⁻¹ (6-fold).

Molecular target: the molecule itself
Test: native gel or EMSA; non-denaturing PAGE (10% resolving gel, 5% stacking gel), Coomassie stain and anti-His western blot; size read against a high molecular weight protein marker
Details: not given

For B1, the “stoichiometry N” value was 12.
